Reference: PMC12459236

Biological target: SpyTag-AP205 recombinant protein (self-assembled AP205 nanoparticles) (bacteriophage AP205)
Assay: SDS-PAGE of covalent coupling; purified ST-AP205 and CTD-SC mixed at designated molar ratios, left overnight at 4°C; covalent SpyTag-SpyCatcher coupling read by SDS-PAGE

Substance: PDCoV S1-CTD-SpyCatcher recombinant protein
- rate of formation of CTDnps (ST-AP205:CTD-SC molar ratio 4:10): > 80%
